Experimental data: patent EP4696329A1 (BioRay Pharmaceutical Co., Ltd., dated 2024)

Target: human ROR1 expressed on cells (MDA-MB-231, Jeko-1, PA-1, HCC1187) (human, UniProt Q01973 30-937)
Assay: cell-based or functional assay

Chain of human ROR1 expressed on cells (MDA-MB-231, Jeko-1, PA-1, HCC1187) (Q01973 30-937 limits assumed): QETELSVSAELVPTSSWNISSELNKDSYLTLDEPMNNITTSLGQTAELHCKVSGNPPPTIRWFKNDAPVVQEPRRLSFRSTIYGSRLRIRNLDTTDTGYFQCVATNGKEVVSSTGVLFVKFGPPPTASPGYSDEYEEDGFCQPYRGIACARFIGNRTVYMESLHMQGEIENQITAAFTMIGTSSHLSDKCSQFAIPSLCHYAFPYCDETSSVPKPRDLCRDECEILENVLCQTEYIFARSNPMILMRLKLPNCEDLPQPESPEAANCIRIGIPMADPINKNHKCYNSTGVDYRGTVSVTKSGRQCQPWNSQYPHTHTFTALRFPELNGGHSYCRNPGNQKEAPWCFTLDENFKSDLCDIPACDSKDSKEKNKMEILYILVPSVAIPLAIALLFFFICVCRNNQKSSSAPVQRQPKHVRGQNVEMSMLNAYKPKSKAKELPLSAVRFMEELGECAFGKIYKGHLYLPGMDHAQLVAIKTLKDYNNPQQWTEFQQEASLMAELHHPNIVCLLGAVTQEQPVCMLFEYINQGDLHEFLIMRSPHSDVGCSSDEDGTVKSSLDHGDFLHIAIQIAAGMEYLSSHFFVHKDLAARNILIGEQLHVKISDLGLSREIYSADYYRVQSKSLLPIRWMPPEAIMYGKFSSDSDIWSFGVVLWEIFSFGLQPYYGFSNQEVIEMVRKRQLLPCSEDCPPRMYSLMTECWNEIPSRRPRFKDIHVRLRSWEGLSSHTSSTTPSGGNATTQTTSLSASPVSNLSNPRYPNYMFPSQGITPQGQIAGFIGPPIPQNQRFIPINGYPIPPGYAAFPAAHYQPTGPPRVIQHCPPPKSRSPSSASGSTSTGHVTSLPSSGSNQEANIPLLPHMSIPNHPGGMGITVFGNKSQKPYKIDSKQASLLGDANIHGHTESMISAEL

Binder | inhibitory IC50 against the proliferation of HCC1187 cells (CellTiterGlo2) [nM] | inhibitory IC50 against the proliferation of Jeko1 cells (CellTiterGlo2) [nM] | inhibitory IC50 against the proliferation of PA-1 cells (CellTiterGlo2) [nM]
ADC-6 (UC961 conjugated to LD-14) (antibody, human IgG1, kappa, V domains shown, linker-drug LD-14 (eribulin) on cysteine sulfhydryls of reduced disulfides; drug loading 3.7-4.3 per antibody) VH: QVQLQESGPGLVKPSQTLSLTCTVSGYAFTAYNIHWVRQAPGQGLEWMGSFDPYDGGSSYNQKFKDRLTISKDTSKNQVVLTMTNMDPVDTATYYCARGWYYFDYWGHGTLVTVSS VL: DIVMTQTPLSLPVTPGEPASISCRASKSISKYLAWYQQKPGQAPRLLIYSGSTLQSGIPPRFSGSGYGTDFTLTINNIESEDAAYYFCQQHDESPYTFGEGTKVEIKR | 0.24 | 2.08 | 0.36
ADC-5 (AM3-ZH3 conjugated to LD-1) (antibody, human IgG1, kappa, V domains shown, linker-drug LD-1 (MMAE) on cysteine sulfhydryls of reduced disulfides; average DAR between 3.7 and 4.3) VH: EVQLVESGGGLVQPGGSLRLSCAASGFTFSSYPMSWVRQAPGKGLEWVSSISTGASAYFPDSVKGRFTISRDNAKNSLYLQMNSLRAEDTAVYYCARITTSTWYMDVWGQGTTVTVSS VL: DIQMTQSPSAMSASVGDRVTITCKASQDIYSYLSWFQQKPGKVPKTLIYRANRLVRGVPSRFSGSGSGQEYTLTISSLQPEDMATYYCLQYDEFPYTFGQGTKLEIKR | 6.3 | 65.1 | 17.8
ADC-2 (AM3-ZH3 conjugated to LD-14) (antibody, human IgG1, kappa, V domains shown, linker-drug LD-14 (eribulin) on cysteine sulfhydryls of reduced disulfides; average DAR between 3.7 and 4.3) VH: EVQLVESGGGLVQPGGSLRLSCAASGFTFSSYPMSWVRQAPGKGLEWVSSISTGASAYFPDSVKGRFTISRDNAKNSLYLQMNSLRAEDTAVYYCARITTSTWYMDVWGQGTTVTVSS VL: DIQMTQSPSAMSASVGDRVTITCKASQDIYSYLSWFQQKPGKVPKTLIYRANRLVRGVPSRFSGSGSGQEYTLTISSLQPEDMATYYCLQYDEFPYTFGQGTKLEIKR | 0.09 | 0.285 | 0.017
ADC-3 (KIH YR8/ZH3 conjugated to LD-14) (bispecific antibody, human IgG1, kappa, linker-drug LD-14 (eribulin) on cysteine sulfhydryls of reduced disulfides; average DAR between 3.7 and 4.3) heavy 1: not shown light 1: EIVLTQSPATLSLSPGERATLSCSASSQVSYIHWYQQKPGQAPRPWIYETSKLASGIPARFSGSGSGTDYTLTISSLEPEDFAVYYCQQWNYPLITFGQGTKLEIKRTVAAPSVFIFPPSDEQLKSGTASVVCLLNNFYPREAKVQWKVDNALQSGNSQESVTEQDSKDSTYSLSSTLTLSKADYEKHKVYACEVTHQGLSSPVTKSFNRGEC heavy 2: not shown light 2: DIQMTQSPSAMSASVGDRVTITCKASQDIYSYLSWFQQKPGKVPKTLIYRANRLVRGVPSRFSGSGSGQEYTLTISSLQPEDMATYYCLQYDEFPYTFGQGTKLEIKRTVAAPSVFIFPPSDEQLKSGTASVVCLLNNFYPREAKVQWKVDNALQSGNSQESVTEQDSKDSTYSLSSTLTLSKADYEKHKVYACEVTHQGLSSPVTKSFNRGEC | 0.014 | 0.018 | 0.032
ADC-4 (KIH YR8/ZH3 conjugated to LD-1) (bispecific antibody, human IgG1, kappa, linker-drug LD-1 (MMAE) on cysteine sulfhydryls of reduced disulfides; average DAR between 3.7 and 4.3) heavy 1: not shown light 1: EIVLTQSPATLSLSPGERATLSCSASSQVSYIHWYQQKPGQAPRPWIYETSKLASGIPARFSGSGSGTDYTLTISSLEPEDFAVYYCQQWNYPLITFGQGTKLEIKRTVAAPSVFIFPPSDEQLKSGTASVVCLLNNFYPREAKVQWKVDNALQSGNSQESVTEQDSKDSTYSLSSTLTLSKADYEKHKVYACEVTHQGLSSPVTKSFNRGEC heavy 2: not shown light 2: DIQMTQSPSAMSASVGDRVTITCKASQDIYSYLSWFQQKPGKVPKTLIYRANRLVRGVPSRFSGSGSGQEYTLTISSLQPEDMATYYCLQYDEFPYTFGQGTKLEIKRTVAAPSVFIFPPSDEQLKSGTASVVCLLNNFYPREAKVQWKVDNALQSGNSQESVTEQDSKDSTYSLSSTLTLSKADYEKHKVYACEVTHQGLSSPVTKSFNRGEC | 1.2 | 46.6 | 4.2
ADC-7 (UC961 conjugated to LD-1) (antibody, human IgG1, kappa, V domains shown, linker-drug LD-1 (MMAE) on cysteine sulfhydryls of reduced disulfides; drug loading 3.7-4.3 per antibody) VH: QVQLQESGPGLVKPSQTLSLTCTVSGYAFTAYNIHWVRQAPGQGLEWMGSFDPYDGGSSYNQKFKDRLTISKDTSKNQVVLTMTNMDPVDTATYYCARGWYYFDYWGHGTLVTVSS VL: DIVMTQTPLSLPVTPGEPASISCRASKSISKYLAWYQQKPGQAPRLLIYSGSTLQSGIPPRFSGSGYGTDFTLTINNIESEDAAYYFCQQHDESPYTFGEGTKVEIKR | 15.4 | 76.3 | 15.1
